# B1: TPR t1 (parent)
# chain: GACCAAUCUGCCCUCAGAGCUCGAGAACAUCUUCGGAUGCAGAGGAGGCAGGCUUCGGUGGCGCGAUAGCGCCAACGUCCUCAACCUCCAAUGCAUCCCACCACAUGAUGAUGCCUGAAGAGCCUUGGUUUUUUG
# Variants of: B1
# Experiment: polymerase ribozyme fitness, log enrichment relative to wild type (log ratio); higher = more active; in vitro selection for triplet polymerase activity
# Procedure, shortened: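 In triplicate, a single round of in vitro selection was run on each mutant library, PCR-built and transcribed, covering one subunit of a heterodimeric triplet polymerase ribozyme. Frozen incubation at −7 °C followed annealing with a biotinylated primer, partner subunit and triplets, and extended constructs were then gel-excised, streptavidin-captured and taken through RT-PCR. Fitness is the logarithm of genotype enrichment over wild-type enrichment, from inverse-variance-weighted replicate averages of Illumina-sequenced inputs and outputs. […] only genotypes with ≥10 input reads and ≥1 read per output were kept.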
row,Variant,polymerase ribozyme fitness (log ratio)
1,GACCAAUCUGGCCUCAGAGCUCGAGAACAUCUUCGGAUGCAGAGGAGGCAGGCUUCGGUGGCGCGAUAGCGCCAACGUCCUCAACCUCCAAUGCAUCCCACCACAUCAUGAUGCCUGAAGAGCCUUGGUUUUUUG [C11G G107C],-4.6
2,GACCAAUCUGGCCUCAGAGCUCGAGAACAUCUUCGGAUGCAGAGGAGGCAGGCUUCGGUGGCGCGAUAGCGCCAACGUCCUCAACCUCCAAUGCAUCCCACCACAUGAUUAUGCCUGAAGAGCCAUGGUUUUUUG [C11G G110U U125A],-0.479
3,GACCAAUCUGGCCUCAGAGCUCGAGAACAUCUUCGGAUGCAGAGGAGGCAGGCUUCGGUGGCGCGAUAGCGCCAACGUCCUCAACCUCCAAUGCAUCCCACCACAUGAUGAUACCUGAAGAGCCUUGGUUUUUUG [C11G G113A],-0.119
4,GACCAAUCUGGCCUCAGAGCUCGAGAACAUCUUCGGAUGCAGAGGAGGCAGGCUUCGGUGGCGCGAUAGCGCCAACGUCCUCAACCUCCAAUGCAUCCCACCACAUGAUGAUACCUGAAGAGCCUUGGUUUUAUG [C11G G113A U133A],-1.34
5,GACCAAUCUGGCCUCAGAGCUCGAGAACAUCUUCGGAUGCAGAGGAGGCAGGCUUCGGUGGCGCGAUAGCGCCAACGUCCUCAACCUCCAAUGCAUCCCACCACAUGAUGAUGCCUAAAGAGCCUUGGUUUUUUG [C11G G117A],-0.219
6,GACCAAUCUGGCCUCAGAGCUCGAGAACAUCUUCGGAUGCAGAGGAGGCAGGCUUCGGUGGCGCGAUAGCGCCAACGUCCUCAACCUCCAAUGCAUCCCACCACAUGAUGAUGCCUUAAGAGCCUUUGUUUUUUG [C11G G117U G127U],-3.47
7,GACCAAUCUGGCCUCAGAGCUCGAGAACAUCUUCGGAUGCAGAGGAGGCAGGCUUCGGUGGCGCGAUAGCGCCAACGUCCUCAACCUCCAAUGCAUCCCACCACAUGAUGAUGCCUGAAGAACCUUGGUUUUUUG [C11G G122A],0.352
8,GACCAAUCUGGCCACAGAGCUCGAGCACAUCUUCGGAUGCAGAGGAGGCAGGCUUCGGUGGCGCGAUAGCGCCAACGUCAUCAACCUCUAAUGCAUCCCACCACAUGAUGAUGCCUGAAGAGCUUUGGUUUUUUG [C11G U14A A26C C80A C89U C124U],-6.54
9,GACCAAUCUGGCCUCAGAGCACGAGAACAUCUUCGGAUGCAGAGGAGGCAGGCUUCGGUGGCGCGAUAGCGCCAACAUCCUCAACCUCCAAUGCAUCCCACCACAUGAUGAUGCCUGAAGAGCCUUGGUUUUUUG [C11G U21A G77A],-0.311
10,GACCAAUCUGGCCUCAGAGCGCGAGAACAUCUUCGGAUGCAGAGGAGGCAGGCUUCGGUGGCGCGAUAGCGCCAACGUCCUCAACCUCCAAUACAUCCCACCACAUGAUGAUGCCUGAAGAGCCUUGGUUUUUUG [C11G U21G G93A],-2.28
11,GACCAAUCUGGCCUCAGAGCUCGAGAACAUCAUUGGAUGCAGAGGAGGCAGGCUUCGGUGGCGCGAUAGCGCCAACGUCCUCAACCUCCAAUGCAUCCCACCACAUGAUGAUGCGUGAAGAGCCUUGGUUUUUUG [C11G U32A C34U C115G],-8.31
12,GACCAAUCUGGCCUCAGAGCUCGAGAACAUCGUCGGAUGCAGAGGAGGCAGGCUUCGGUGGCGCGAUAGCGCCAACGUCCUCAACCUCCAAUGCAUCCCACCACAUGAUGAUGCCUGAAGAGCCAGGGUUUUUUG [C11G U32G U125A U126G],-6.54
13,GACCAAUCUGGCCUCAGAGCUCGAGAACAUCUGCGGAUGCAGAGGAGGCAGGCUUCGGUGGCGCGAUAGCGCCAACGUCCUCAACCUCCAAUGCGUCCCAUCACAUGAUGAUGCCUGAACAGCCUUGGUUUUUUG [C11G U33G A95G C101U G120C],-5.25
14,GACCAAUCUGGCCUCAGAGCUCGAGAACAUCUUCGGAAGCAGAGUAGGCCGGCUUCGGUGGCGCGAUAGCGCCAACGUCCUCAACCUCCAAUGCAUCCCACCACAUGAUGAUGCCUGAAGAGCCUUGGUUUUUUG [C11G U38A G45U A50C],-2.51
15,GACCAAUCUGGCCUCAGAGCUCGAGAACAUCUUCGGAUGCAGAGGAGGCAGGCUCCGGUGGGGCGAUAGCGCCAACGUCCUCUACCUCCAAUGCUUCCCACCACAUGAUGAUGCCUGAAGAGCCUUGGUUUUUUG [C11G U55C C62G A83U A95U],-1.47
16,GACCAAUCUGGCCUCAGAGCUCGAGAACAUCUUCGGAUGCAGAGGAGGCAGGCUUCGGAGGCGCGAUUGCGCCAACGUCCUCAACCUCCAAUGCAUCCCACCACAUGAUGAUGCCUGAAGAGCCUUGGUUUUUUG [C11G U59A A68U],-7.59
17,GACCAAUCUGGCCUCAGAGCUCGAGAACAUCUUCGGAUGCAGAGGAGGCAGGCUUCGGUGGCGCGAUAGCGCCAACGUCCUCAACCUCCAAUGCAUCCCACCACAUGAGGAUGCCUGAAGAGCCUUGGUUUUUUG [C11G U109G],-4.69
18,GACCAAUCUGGCCUCAGAGCUCGAGAACAUCUUCGGAUGCAGAGGAGGCAGGCUUCGGUGGCGCGAUAGCGCCAACGUCCUCAACCUCCAAUGCAUCCCACCACAUGAUGAUGCCUGAAGAGCCUUGGGUUUUUG [C11G U129G],-1.77
19,GACCAAUCUGGCCUCAGAGCUCGAGAACAUCUUCGGAUGCAGAGGAGGCAGGCUUCGGUGGCGCGAUAGCGCCAACGUCCUCAACCUCCAAUGCAUCCCACCACAUGAUGAUGCCUGAAGAGCCUUGGUAUUUUG [C11G U130A],0.0419
20,GACCAAUCUGGCCUCAGAGCUCGAGAACAUCUUCGGAUGCAGAGGAGGCAGGCUUCGGUGGCGCGAUAGCGCCAACGUCCUCAACCUCCAAUGCAUCCCACCACAUGAUGAUGCCUGAAGAGCCUUGGUUUUUAG [C11G U134A],0.54
21,GACCAAUCUGUCCUCCGAGCUCGAGAACAUCUUCGGAUGCAGAGGAGGCAGGCUUCGGUGGCACGAUAGCGCCAACGUCCUCAACCUCCAAUGCAUCCCACCACAUGAUGAUGCCUGAAGAGCCUUGGUUUUUUG [C11U A16C G63A],-3.2

row,Variant,polymerase ribozyme fitness (log ratio)
1,GACCAAUCUGUCCUCCGAGCUCGAGAACAUCUUCGGAUGCAGAGGAGGCAGGCUUCGGUGGCGCGAUAGCGCCAACGUCCUCAACCUCCAAUCCAUCCCACCACAUGAUGAUGCCUGAAGAGCCUUGGUUUUUUG [C11U A16C G93C],-4.45
2,GACCAAUCUGUCCUCUGAGCUCGAGAACAUCUUCGGAUGCAGAGGAGGCAGGCUUCGGUGGCGCGAUAGCGCCAACGUCCUCAACCUCCAAUGCAUCCCACCACAUGAUGAAGCCUGAAGAGCCUUGGUUUUUUG [C11U A16U U112A],-0.434
3,GACCAAUCUGUCCUCAGUGUUCGAGAACAUCUUCGGAUGCAGAGGAGGCAGGCUUUGGUGGCGCGAUAGCGCCAACGUCCUCAACCUCCAAUGCAUCCCAACACAUGAUGAUGCCUGAAGAGCCUUGGUUUUUUG [C11U A18U C20U C56U C101A],-3.06
4,GACCAAUCUGUCCUCAGUGCUCGAGAACAUCUUCGGAUGCAGAGGAGGCAGGCUUCGGUGGCGCGAUAUCGCCAACGUCCUCAACCUCCAAUGCAUCCCACCACAUGAUGAUGCCUGAAGAGCCUUGGUUUUUUG [C11U A18U G69U],-0.642
5,GACCAAUCUGUCCUCAGAGCUCGGGAACAUCUUCGGAUGCAGAGGAUGCAGGCUUCGGUGGCGCGAUAGCGCCAACUUCCUCAACCUCCAAUGCAUCCCACCACAUGAUGAUGCCCGAAGAGCCUUGGUUUUUUG [C11U A24G G47U G77U U116C],-7.91
6,GACCAAUCUGUCCUCAGAGCUCGAGUACAUCUUCGGAUGCAGAGGAGGGAGGCUUCGGUGGCGCGAUAGCGCCAACGUCCUCAACCUCCAAUGCAUCCCACCACAUGAUGAUGCCUGAAGAGCCUUGGUUUUUUG [C11U A26U C49G],-3.4
7,GACCAAUCUGUCCUCAGAGCUCGAGUACAUCUUCGGAUGCAGAGGAGGCAGCCUUCGGUGGCGCGAUAGCGCCAACGUCCUCAACCUCCAAUGCAUCCCACCACAUGAUGAUGCCUGAAGAGCCUUGGUUUUUUG [C11U A26U G52C],-3.53
8,GACCAAUCUGUCCUCAGAGCUCGAGAUCAUCUUCGGAUGCAGAGGAGGCAGGCUUCGGUGGCGCGAUAGCUCCAACGUCCUCAACCUCCAAUGCAUCCCAGCAUAUGAUGCUGCCUGAAGAGCCUUGGUUUUUUG [C11U A27U G71U C101G C104U A111C],-6.17
9,GACCAAUCUGUCCUCAGAGCUCGAGAUCAUCUUCGGAUGCAGAGGAGGCAGGCUUCGGUGGCGCGAUAGCGCCAACGUCCUCAACCUCCAAUGCAUCCCACCACAUGAUGAUGCCUGAAAAGCCUUGGUUUAUUG [C11U A27U G120A U132A],-1.47
10,GACCAAUCUGUCCUCAGAGCUCGAGAACCUCUUCGGAUGCAGAGGAGGCAGGCUUCGGUGGCGCGAUAGCGCCAACGUCCUCAACCUCCAAUGCAUCCCACCACAUGAUGAUGCCUGAAGAGCCUUGGUUUUUUG [C11U A29C],-3.12
11,GACCAAUCUGUCCUCAGAGCUCGAGAACUUCUUCGGAUGCAGAGGAGGCAGGCUUCGGUGGCGCGAUAGCGCCAACGUCCUCAACCUCCAAUGCAUCCCACCACAUGAUGAUGCCUGAAGAGCCUUGGUUUUUUG [C11U A29U],-2.46
12,GACCAAUCUGUCCUCAGAGCUCGAGAACAUCUUCGGCUGCAGAGUAGGCAGGCUUCGAUGGCGCGAUAGCGCCAACGUCCUCAACCUCCAAUGCAUCCCACCACAUGAUGAUGCCUGAAGAGCCUUGGUUUUUUG [C11U A37C G45U G58A],-2.72
13,GACCAAUCUGUCCUCAGAGCUCGAGAACAUCUUCGGUUGCAGAGAAGGCAGGCUUCGGUGGCGCGAUAGCGCCAACGUCCUCAACCUCCAAUGCAUCCCACCACAUGAUGAUGCCUGAAGAGCCUUGGUUUUUUG [C11U A37U G45A],-1.81
14,GACCAAUCUGUCCUCAGAGCUCGAGAACAUCUUCGGUUGCAGAGGAGGCAGGCUCCGGUGGCGCGAUAGCGCCAACGUCCUCAACCUCCAAUGCAUCCCACCACAUGAUGAUGCCUGAAGAGCCUUGGUUUUUUG [C11U A37U U55C],-1.28
15,GACCAAUCUGUCCUCAGAGCUCGAGAACAUCUUCGGAUGCGGAGGAGGCAGGCUUGGGUGGCGCGAUAGCGCCAACGUCCUCAACCUCCAAUGCAUCCCACCACAUGAUGAUGCCUGAAGAGCAUUGGUUUUUUG [C11U A41G C56G C124A],1.04
16,GACCAAUCUGUCCUCAGAGCUCGAGAACAUCUUCGGAUGCAGGGGAGGCAGGCUUCGGUGGCGCGAUAGCGGCAACGUCCUCAACCUCCAAUGCAUCCCACCACAUGAUGAUGCCUGAAGAGCCUUGGUUUUUUG [C11U A43G C72G],-2.54
17,GACCAAUCUGUCCUCAGAGCUCGAGAACAUCUUCGGAUGCAGUGGAGGCAGGCUUCGGUGGCGCGAUAGCGCCAACGUCCUCAACCUCCAAUGCAUCCCACCACAUGAUGAUGCCUGAAGAGCCUUGGUUUUUUG [C11U A43U],-1.62
18,GACCAAUCUGUCCUCAGAGCUCGAGAACAUCUUCGGAUGCAGUGGAGGCAGGCUUUGGUGGCGCGAUAGCGCCAACGUCCUCAACCUCCAAUGCAUCCCACCACAUGAUGAUGGCUGAAGAGCCUUGCUUUUUUG [C11U A43U C56U C114G G128C],-5.28
19,GACCAAUCUGUCCUCAGAGCUCGAGAACAUCUUCGGAUGCAGAGGAGGCGGGCUUCGGUGGCGCGAUAGCGCCAACGUCCUCAACCUCCAAUGCAUCCCACCACAUGAUGAUGCCUGAAGAGCCUUGGUUUUUUG [C11U A50G],-0.405
20,GACCAAUCUGUCCUCAGAGCUCGAGAACAUCUUCGGAUGCAGAGGAGGCUGGCUUCGGUGGCGCGAUAGUGCCAACGUCCUCAACCUCCAAUGCAUCCCACCACAUGAUGAUACCUGAAGAGCCUUGGUUUUUUG [C11U A50U C70U G113A],-2.63
21,GACCAAUCUGUCCUCAGAGCUCGAGAACAUCUUCGGAUGCAGAGGAGGCUGGCUUCGGUGGCGCGAUAGCGCCAACGUCCUCAACCUUCAAUGCAUCCCACCACAUGAUGAUGCCUGAAGAGCCUUGGUUUUUUG [C11U A50U C88U],-1.26
